Laboratory results: patent publication US8252764B2, “Compositions and methods of use of targeting peptides against placenta and adipose tissues” (priority 2000, dated 2012)
Like-named read-outs stand apart in the source and are kept apart here.

Tests used:
placenta [1] = assay: Peptide embryotoxicity in pregnant mice; type: in vivo, mouse
Excerpt: FIG. 7. TPKTSVT (SEQ ID NO:5) peptide inhibits mouse pregnancy and is teratogenic. (A) Pregnancy courses (representative from 5 independent experiments) in mice subcutaneously injected with the indicated phage or peptides were monitored by daily weighing of the mice upon each injection (arrows). (B) Appearance of a normally developed 20 dpc embryo (left) for control GST fusion treatment compared to a representative 20 dpc embryo (right) resulting from TPKTSVT (SEQ ID NO:5) linked to GST fusion treatment. A severely teratogenic phenotype is observed with the placental targeting fusion peptide. (C) and […]) Hematoxylin/eosin staining of 20 dpc paraffin-embedded placentas derived from mice injected for 7 days with (C) control GST fusion or (D) the TPKTSVT (SEQ ID NO:5) linked to GST fusion peptide. Note hemorrhage (black asterisks), necrosis (white asterisks), and fibrosis (arrowheads). Bar: 500 μm (50 μm for insets).
Peptide Embryotoxicity For peptide embryotoxicity studies, agents were injected at the following daily doses: GST-peptides 0.1 mg (˜3 nMoles), FITC-peptides 50 μg (˜30 nMoles),and phage-peptides 10″ TU. All agents were dissolved in PBS. Mice were injected subcutaneously in the back (5-10 injections per course).
The phage or fusion peptides were subcutaneously injected and the progression of pregnancy was compared with mice injected with control phage, control peptides, or saline. Multiple injections of the TPKTSVT (SEQ ID NO:5) peptide were administered, starting at mid-pregnancy (˜12 days postconception, dpc) in doses non-toxic to the mother.

placental transporter = assay: Phage recovery from embryos (materno-fetal transfer); type: in vivo, mouse; conditions: excess of co-injected peptide
Protocol: FIG. 4. The TPKTSVT (SEQ ID NO:5) peptide specifically binds a placental transporter. (A) Recovery of indicated phage from embryos carried by 18 dpc pregnant mice intravenously injected (tail vein) with 10^10 TU of the indicated phage 6 h prior to phage recovery or immunohistochemistry. […] TPKTSVT (SEQ ID NO:5) phage were administered alone (dark cross-hatched) or co-administered with control-GST (black) or TPKTSVT (SEQ ID NO:5) linked to GST (white bar). Shown are mean+/−SEM (standard error) from different embryos. (B-D) Anti-phage IMP immunohistochemistry (arrowheads) in paraffin sections of the vys from the corresponding mice, as indicated. Asterisks mark embryonic capillaries. Bar: 20 μm.
Phage Recovery Mouse placentas and embryonic livers were individually weighed, ground with a glass Dounce homogenizer and suspended in 1 ml of Dulbecco's Modified Eagle's Medium (DMEM) containing proteinase inhibitors (DMEM-prin—1 mM PMSF, 20 μg/ml aprotinin, and 1 μg/ml leupeptin). The suspension was vortexed and washed three times with DMEM-prin. […]
The TPKTSVT (SEQ ID NO:5) Peptide Binds to a Placental Transporter The TPKTSVT (SEQ ID NO:5) peptide localizes to the vys (FIG. 3), which is the tissue primarily responsible for materno-fetal transport in mice. […] Either TPKTSVT (SEQ ID NO:5)-phage or control phage were injected into pregnant mice and the recovery of phage from embryos was determined.

[2] = tested on: mouse villous yolk sac (vys); assay: Peptide localization in placenta (immunohistochemistry, FITC immunofluorescence); type: in vivo; conditions: 18 dpc pregnant mice, intravenous, 6 h
Protocol: Fusion and Recombinant Peptides Carboxyfluorescein (FITC)-conjugated [sequence] […] The FITC-peptide stocks were made by dissolving lyophilized peptides in DMSO to a concentration of 20 mM, after which the peptides were diluted to 1 mM with PBS (phosphate buffered saline) and aliquots were frozen until use. The [sequence] (SEQ ID NO:144) peptide and an unrelated control peptide, [sequence] (SEQ ID NO:87), fused in-frame with GST at the amino-terminus were purified to approximately 90% purity using the BugBuster GST Bind Kit (Novagen, Madison, Wis.). Purified peptides were buffer-exchanged into PBS using Centricon PL-10 columns (Millipore, Bedford, Mass.) and the aliquots were frozen until use. […]
Peptide Localization in Tissues Immunohistochemistry on sections of formalin-fixed, paraffin-embedded mouse tissue was performed as described (Pasqualini et al., 2000; Pasqualini and Ruoslahti, 1996): For phage-peptide immunolocalization, a rabbit anti-fd phage antibody (Sigma Chemicals, St. Louis, Mo.) was used at 1:1,000 dilution and detected with a secondary horseradish peroxidase (HRP)-conjugated antibody. For GST-peptide immunolocalization, a goat anti-GST antibody (Amersham, Piscataway, N.J.) was used at 1:1,000 dilution and detected with a secondary alkaline phosphatase (AP)-conjugated antibody. […]

[3] = tested on: white adipose vasculature; assay: Peptide localization in white fat; type: in vivo, mouse; conditions: intravenous
Excerpt: (A) and (B) Anti-phage immunohistochemistry in paraffin sections of subcutaneous white fat from leptin-deficient mice intravenously injected 6 hr prior to tissue processing. (C) and (D) Peptide-FITC immunofluorescence in paraffin sections of subcutaneous white fat from leptin-deficient mice intravenously injected 6 hr prior to tissue processing. […] (SEQ ID NO:22) linked to FITC peptide, or (D) control. CARAC (SEQ ID NO:12) linked to FITC peptide. […] Bar: 10 μm.
(A), (C) and (E) Peptide-FITC immunofluorescence or (B), (D) and (F) lectin-rhodamine immunofluorescence in blood vessels of (A), (B), (E) and (F) subcutaneous white fat or (C) and (D) pancreas controls detected in paraffin-sectioned tissues from c57bl/6 mice intravenously co-injected 5 min prior to tissue processing. […] (SEQ ID NO:22) linked to FITC peptide and lectin-rhodamine; or (E) and (F) control CARAC (SEQ ID NO:12) linked to FITC peptide and lectin-rhodamine; (B), (D) and (F) Arrows show endothelium marked with lectin. […] Bar: 10 μm.
Staining of formalin-fixed, paraffin-embedded mouse tissue sections was performed (Pasqualini & Rouslahti, 1996; Pasqualini et al., 2000). For phage-peptide immunolocalization, 10^10 TU of [sequence] […] Apoptosis was detected using standard TUNEL immunohistochemistry and an HRP-conjugated antibody. […]

placenta [4] = tested on: placenta
Excerpt: The CARAC peptide (SEQ ID NO:12), an adipose targeting peptide (FE, TREVHRS, SEQ ID NO:13) or fd-tet phage were used as non-placental targeting controls.

[5] = tested on: MDA-MB-435-derived tumor xenografts; assay: In vivo tumor homing of APA-binding phage; parameters: species or system mouse
Protocol: FIG. 31. APA-binding phage specifically bind tumors. Equal amounts of phage were injected into the tail veins of mice bearing MDA-MB-435-derived tumors and phage were recovered after perfusion. Mean values for phage recovered from the tumor or control tissue (brain) and the standard error from triplicate platings are shown.
MDA-MB-435-derived tumor xenografts were established in female nude mice 2 months old (Jackson Labs, Bar Harbor, Me.). Mice were anesthetized with Avertin and injected intravenously through the tail vein with 10^9 TU of the phage in a 200 μl volume of DMEM. The phage were allowed to circulate for 5 min, and the animals were perfused through the heart with 5 ml of DMEM. The tumor and brain were dissected from each mouse, weighed, and equal amounts of tissue were homogenized. The tissue homogenates were washed three times with ice-cold DMEM containing a proteinase inhibitor cocktail and 0.1% BSA. Bound phage were rescued and counted as described for cell panning. Fd-tet phage was injected at the same input as a control. The experiment was repeated twice. In parallel, part of the same tissue samples were fixed in Bouin solution, and imbedded in paraffin for preparation of tissue sections. An antibody to M-13 phage (Amersham-Pharmacia) was used for the staining.

HUVEC cells = assay: Apoptosis assay in HUVEC (propidium iodide, chromatin fragmentation); type: cell-based, human; conditions: 10^6 HUVEC, 15 μM, 2-4 hours
Protocol: FIG. 26. Penetratin peptide chimera binding to the β5 cytoplasmic domain induces programmed cell death. 10^6 HUVEC cells were harvested in complete media and 15 μM penetratin peptide chimeras were added to the cells. […] (a) Profile obtained with starved cells after 24 h. (b) Confluent cells in complete media. (c) 15 μM of penetratin after four hours. (d) 15 μM of VISY-penetratin chimera after four hours.
FIG. 30. Chimeric peptide containing VISY peptide linked to penetratin (antennapedia) induces apoptosis. VISY induced apoptosis was inhibited by addition of a caspase inhibitor (zVAD).
Approximately 1×10^6 cells were harvested in complete media and 15 AM of peptide added for 4, 8, or 12 h. The cellswere then washed in PBS and resuspended in 0.5 ml propidium iodide solution (50 μg/ml PI, 0.1% Triton X-100, 0.1% sodium citrate). After a 24-h incubation at 4° C., cells were counted with a XL Coulter (Coulter Corporation) with a 488-nm laser; 12,000 cells were counted for each histogram, and cell cycle distributions were analyzed with Multicycle program.
Approximately 1×10^6 cells were harvested in complete medium, and 15 μM of peptide was added for 4, 8, or 12 hours. The cells were then washed in PBS and resuspended in 0.5 ml propidium iodide solution (50 μg/ml PI, 0.1% Triton X-100, 0.1% sodium citrate). After a 24-h incubation at 4° C., the cells were counted with an XL Coulter (Coulter Corporation) with a 488 nm laser; 12,000 cells were counted for each histogram, and cell cycle distributions were analyzed with the Multicycle program.
10^6 HUVEC were treated with 15 μM of VISY antennapedia (penetratin) chimera or 15 μM of antennapedia peptide (pentratin) alone for 2-4 hours and chromatin fragmentation was analyzed by electrophoresis in an agarose gel.

β5 integrin = molecular target: T1, β5 integrin (Homo sapiens, UniProt P18084); assay: Annexin V binding to GST-β5 integrin cytoplasmic domain (ELISA, competition)
T1 construct: Plates were coated with GST fusion proteins of the cytoplasmic domains of various integrins
T1 sequence (P18084 743-799 limits assumed): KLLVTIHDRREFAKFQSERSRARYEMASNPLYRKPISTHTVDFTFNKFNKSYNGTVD
Protocol: FIG. 29A. Competitive binding of Annexin V to β5 integrin with VISY peptide. Binding assays were performed by ELISA.
Competitive binding assays were performed to examine the binding of Annexin V to β5 integrin and the effect of the VISY peptide. Plates were coated with GST fusion proteins of the cytoplasmic domains of various integrins and Annexin V was added to the plates. Binding of Annexin V was determined using anti-Annexin V antibodies. […] Calcium was used because Annexin V activity has been reported to be modulated by calcium. Binding of Annexin V to GST-β5 was blocked by addition of the VISY peptide (FIG. 29A).
A reciprocal study was performed, using Annexin V to coat plates and adding GST fusion proteins of integrin cytoplasmic domains. Binding was assessed using anti-GST fusion protein antibodies. […] In some studies, calcium ion appeared to interfere with the binding interaction between GST-β5 and Annexin V, with decreased binding observed in the presence of calcium (not shown).

mouse spleen cells = assay: Testing Fab clones in vitro using BRASIL; type: cell-based; conditions: for binding to mouse spleen cells compared to Fd-tet control: BRASIL, FIG. 13; for binding to mouse spleen cells compared to NPC-3TT: FIG. 14
Protocol: FIG. 13. Spleen targeting in vitro using BRASIL. Binding of Fab clones #2, #6, #10, #12 and control Fab clone NPC-3TT were directly compared to each other.
A singe cell suspension was prepared from two mouse spleens. The suspension was divided into five tubes and incubated on ice with 3×10^9 TU of Fab clones #2, #6, #10, #12 and 2×10^9 TU tet-phage. Phage bound to mouse spleen cells were recovered by BRASIL. 200 μl of log phase ER2537 E.coli was infected with the pellet and serial dilutions were plated on LB/carbenicillin and LB/tetracycline plates for assessment of phage binding. Fd-tet was used as an internal control to normalize all the phage homing experiments.

mouse spleen = assay: Testing Fab clones in vivo with BRASIL; conditions: 5 minutes circulation
[6] = FITC conjugates-I, 1 mouse iv (predominantly) or ip ~every other day, day 1-day 18, 9 times, Total 450 mM (~450 μg)
[7] = FITC conjugates-II, 1 mouse sc (predominantly) or iv ~every other day, day 4-day 17, 10 times, Total 1M (~1 mg)

For TPKTSVT [placenta targeting peptide], the “toxicity to the mother” value (placenta [1]; data not shown) was “no signs of peptide toxicity to the mother were observed”, the “histopathological examination of the placentas” value (placenta [1]; seven days of peptide administration) was “massive dilation of blood vessels and intraplacental bleeding, as well as widespread hemorrhagic necrosis” and the “effect on materno-fetal transfer / vys uptake of TPKTSVT-phage on co-injection” value (placental transporter) was “blocked”.

With “CARAC-FITC: FITC-conjugated control peptide CARAC (SEQ ID NO:12)” the localization in placenta [2] was “not detectable in the placenta”, the “localization in white fat of wild-type mice” value ([3]; C57BL/6 (leptin+/+) mice, co-injected lectin-rhodamine) was “not detectable in white fat vasculature” and the “localization in white fat of ob/ob mice” value ([3]; leptin-deficient mice) was “undetectable in adipose tissue”. For the same molecule, the “Peptide Effect on Embryo” value (placenta [4]; [6]) was “No effect”, the “Pregnancy Outcome” value (placenta [4]; [6]) was “Delivery: 18 d, 5 normal pups” and the “Peptide Effect on Embryo” value (placenta [4]; [7]) was “Slight toxicity?”. The “Pregnancy Outcome” value (placenta [4]; [7]) was “Delivery: 20 d, 5 pups, 1-dead”.

With CPKVCPRECESNC the “anti-M13 immunostaining on tissue sections” value ([5]; not shown) was “Strong phage staining was apparent in tumor vasculature but not in normal vasculature” and the “phage enrichment in tumor xenografts compared to brain tissue” value ([5]; nude mice, 10^9 TU iv, 5 min) was 4 fold.

With VVISYSMPD the “induction of apoptosis (chromatin fragmentation)” value (HUVEC cells) was “Neither VISY nor penetratin alone induced apoptosis”, the “inhibition of Annexin V binding to GST-β5” value (β5 integrin; in the absence of calcium) was 45% and the “inhibition of Annexin V binding to GST-β5” value (β5 integrin; in the presence of calcium) was 67%.

B1: Fab clone #2: chicken anti-mouse spleen Fab phage clone selected by BRASIL (protein)
chain: CQPAMAAVTLDESGGGLQTPGGALSLVCKASGFTFNSYPMGWVRQAPGKGLEWVAVISSSGTTWYAPAVKGRATISRDNGQSTVRLQLSNLRAED
In the case of B1, the “binding to mouse spleen cells compared to Fd-tet control” value (“binding … compared to Fd-tet control” below) (mouse spleen cells) is reported as “at least a two-fold increased binding”, the “binding to mouse spleen cells compared to NPC-3TT” value (“binding … compared to NPC-3TT” below) (mouse spleen cells) is reported as “highest levels of binding to mouse spleen cells” and the “binding / localization to spleen compared to Fd-tet phage” value (mouse spleen) is reported as “many-fold increased binding to spleen”.

B2: Fab clone #12: chicken anti-mouse spleen Fab phage clone selected by BRASIL (protein)
chain: ANQPWPPLTLDESGGGLQTPGGALSLVCKASGFTMSSYDMFWVRQAPGKGLEFVAGISSSGSSTEYGAAVKGRATISRDNGQSTVRLQLNNLRAED
B2 was tested, and the “binding … compared to Fd-tet control” value (mouse spleen cells) was “selective binding to mouse spleen cells”, the “binding … compared to NPC-3TT” value (mouse spleen cells) was “only slightly higher than the binding of phage NPC-3TT” and the “binding / localization to spleen compared to Fd-tet phage” value (mouse spleen) was “did not exhibit significantly elevated binding to mouse spleen”.

B3: Fab clone #6: chicken anti-mouse spleen Fab phage clone selected by BRASIL (protein)
chain: CQPAMAAVTLDESGGGLQTPGGTLSLVCKASGISIGYGMNWVRQAPGKGLEYVASISGDGNFAHYGAPVKGRATISRDDGQNTVTLQLNNLR
In the case of B3, the “binding … compared to Fd-tet control” value (mouse spleen cells) is reported as “lowest degree of binding”, the “binding … compared to NPC-3TT” value (mouse spleen cells) is reported as “only slightly higher than the binding of phage NPC-3TT” and the “binding / localization to spleen compared to Fd-tet phage” value (mouse spleen) is reported as “many-fold increased binding to spleen”.
